The target of experiment [1] is mCerulean3-Bcl-XL (human), Q07817. The experiment can be described thus: FRET or BRET; FLIM-FRET in live MCF-7 cells: mCer3-Bcl-XL or mCer3-Bcl-2 stably expressed (donor), Venus-BH3 protein transiently expressed (acceptor); binding curves of FLIM-FRET efficiency against the Venus:mCer3 intensity ratio, 25 C; untreated, DMSO, 20 uM ABT-263 (18-24 h) or 1.25-20 uM A-1155463, A-1331852, ABT-263; R values interpolated at ratio 0.5 (Bcl-XL) or 0.25 (Bcl-2), ^VBad4E signal subtracted. The following applies: remark: other sources report otherwise.
Sequence of mCerulean3-Bcl-XL (human), Q07817 (Q07817 whole entry): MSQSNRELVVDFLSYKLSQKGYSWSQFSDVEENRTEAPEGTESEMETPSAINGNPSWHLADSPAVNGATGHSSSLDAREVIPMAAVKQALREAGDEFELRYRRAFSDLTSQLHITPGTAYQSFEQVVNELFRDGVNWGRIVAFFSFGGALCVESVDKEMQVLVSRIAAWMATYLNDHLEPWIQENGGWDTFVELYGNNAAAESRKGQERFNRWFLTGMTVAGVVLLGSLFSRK

Experiment [2] concerns the target mCerulean3-Bcl-2 (human), P10415. The description is as above. The settings on record: remark: other sources report otherwise.
The target of experiment [3] is Bcl-XL single-cysteine mutant 152C, Alexa647-labelled, Q07817-1. The experiment can be described thus: FRET with purified proteins. The following applies: chain shown with the change, highest ABT-263 point, x position est. about 3000 nM, read off a plot.
Sequence of Bcl-XL single-cysteine mutant 152C, Alexa647-labelled, Q07817-1 (Q07817 whole entry, stated change not applied): as the sequence (Q07817 whole entry) above
Setting [4] is: in solution, without liposomes, parent: est. 68.
[5] abbreviates: with liposomes, parent: est. 99.

Substitutions are numbered along the chain they refer to. Names may count otherwise.

Sequence of mCerulean3-Bcl-2 (human), P10415 (P10415 whole entry): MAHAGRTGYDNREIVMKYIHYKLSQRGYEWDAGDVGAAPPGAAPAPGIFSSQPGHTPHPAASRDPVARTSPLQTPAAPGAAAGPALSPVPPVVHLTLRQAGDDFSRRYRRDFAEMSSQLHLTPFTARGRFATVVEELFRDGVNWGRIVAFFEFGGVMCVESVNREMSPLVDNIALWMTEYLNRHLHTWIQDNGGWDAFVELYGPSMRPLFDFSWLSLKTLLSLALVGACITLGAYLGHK

B1: Venus-Bad, Q92934 1-168 (natural protein)
chain: MFQIPEFEPSEQEDSSSAERGLGPSPAGDGPSGSGKHHRQAPGLLWDASHQQEQPTSSSHHGGAGAVEIRSRHSSYPAGTEDDEGMGEEPSPFRGRSRSAPPNLWAAQRYGRELRRMSDEFVDSFKKGLPRPKSAGTATQMRQSSSWTRVFQSWWDRNLGRGSSAPSQ
For B1, in experiment [1], the IC50 of A-1155463 for disrupting the pair was under 1250 nM; the IC50 of A-1331852 for disrupting the pair was under 1250 nM; the IC50 of ABT-263 for disrupting the pair is over 10000 nM; the R (ABT-263), % of FRET signal left with 20 uM ABT-263 came out at 46.4%. Besides, in experiment [1], the R with A-1155463, % of FRET signal left is 45% and the R with A-1331852, % of FRET signal left is 20%. Besides, the R (ABT-263), % of FRET signal left with 20 uM ABT-263 in experiment [2] was 18.6%.

B2: BimL single-cysteine mutant 41C, Alexa568-labelled I188E (protein)
chain: MAKQPSDVSSECDREGGQLQPAERPPQLRPGAPTSLQTEPCDRSPAPMSCDKSTQTPSPPCQAFNHYLSAMASIRQSQEEPEDLRPEIRIAQELRRIGDEFNETYTRRVFANDYREAEDHPQMVILQLLRFEFRLVWRRH
For the molecule B2, the response (% BH3 protein bound) in experiment [3] (setting [4]) turned out to be 18; in experiment [3] (setting [5]) it was 22.

B3: BimL single-cysteine mutant 41C, Alexa568-labelled I181E (protein)
chain: B2 chain with I125E, E132I
As for B3, the response (% BH3 protein bound) stood at 14 in experiment [3] (setting [4]) and 24 in experiment [3] (setting [5]).

The values are drawn from PMC6414199, “Bim escapes displacement by BH3-mimetic anti-cancer drugs by double-bolt locking both Bcl-XL and Bcl-2” (eLife, 2019).
